Laboratory results: publication PMC12768534 (2025)

What was measured:
[1] = molecular target: human IL-21 receptor (human, UniProt Q9HBE5 20-538); assay: BLI
[2] = molecular target: murine IL-21R (murine, UniProt Q9JHX3 20-529); assay: BLI
[3] = molecular target: T1, murine γc (murine, UniProt P34902 23-369); assay: BLI; in presence of mIL-21R (mIL-21R/mγc)
T1 chain: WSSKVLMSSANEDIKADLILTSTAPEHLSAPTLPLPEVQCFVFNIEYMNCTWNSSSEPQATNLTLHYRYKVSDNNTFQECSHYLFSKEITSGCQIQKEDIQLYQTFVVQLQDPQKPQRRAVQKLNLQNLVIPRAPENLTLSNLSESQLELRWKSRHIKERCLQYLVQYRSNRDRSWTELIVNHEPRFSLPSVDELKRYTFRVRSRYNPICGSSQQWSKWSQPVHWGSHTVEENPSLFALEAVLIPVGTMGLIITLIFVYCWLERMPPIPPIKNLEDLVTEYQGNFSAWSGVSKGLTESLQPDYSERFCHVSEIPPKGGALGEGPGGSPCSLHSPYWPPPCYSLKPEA

[4] = molecular target: T2, human common cytokine receptor γ chain (human, UniProt P31785 23-369); assay: BLI; in presence of hIL-21R (hIL-21R/hγc)
T2 chain: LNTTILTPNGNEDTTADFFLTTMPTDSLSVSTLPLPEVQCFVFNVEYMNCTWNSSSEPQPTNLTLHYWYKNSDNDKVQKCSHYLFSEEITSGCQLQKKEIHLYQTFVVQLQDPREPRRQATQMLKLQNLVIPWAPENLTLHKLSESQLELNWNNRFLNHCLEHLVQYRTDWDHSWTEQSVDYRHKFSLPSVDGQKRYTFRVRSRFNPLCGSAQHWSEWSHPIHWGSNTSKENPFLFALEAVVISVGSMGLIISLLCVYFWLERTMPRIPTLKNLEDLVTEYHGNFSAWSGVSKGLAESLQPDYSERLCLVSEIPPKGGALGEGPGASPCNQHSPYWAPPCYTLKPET

human IL-21 receptor, sequence (Q9HBE5 20-538): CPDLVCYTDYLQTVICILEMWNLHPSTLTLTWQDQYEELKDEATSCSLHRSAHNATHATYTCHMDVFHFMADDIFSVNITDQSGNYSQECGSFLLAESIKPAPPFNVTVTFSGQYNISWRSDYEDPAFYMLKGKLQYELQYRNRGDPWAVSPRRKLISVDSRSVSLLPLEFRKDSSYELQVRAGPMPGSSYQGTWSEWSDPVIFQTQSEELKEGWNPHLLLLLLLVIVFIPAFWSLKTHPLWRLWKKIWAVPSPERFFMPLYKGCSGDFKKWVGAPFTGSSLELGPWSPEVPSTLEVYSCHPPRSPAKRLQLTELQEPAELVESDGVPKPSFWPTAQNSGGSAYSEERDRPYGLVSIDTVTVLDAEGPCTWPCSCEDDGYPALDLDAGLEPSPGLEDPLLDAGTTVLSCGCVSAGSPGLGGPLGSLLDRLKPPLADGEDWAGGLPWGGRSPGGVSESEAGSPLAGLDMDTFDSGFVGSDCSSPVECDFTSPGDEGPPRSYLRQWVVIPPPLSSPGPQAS

Kd [1]: 0.0737 nM | Kd [2]: 5.17 nM | Kd [3]: 93.3 nM | Kd [4]: 85.5 nM
B1: 21h10 (designed binder)
chain: DEEELKEIMKEAAECARKELEKLDNTDEDTRWLKITLKKIVRMANRIVRMREREADSKRFEIRMRGLIDIADHVKREFASEDLKEVMERAKSAAQKALGRWL
